{"source": "patent US7977317B2", "about": "“Compositions and methods for modulating blood-brain barrier transport” (Raptor Pharmaceutical Inc., priority 2001, dated 2011)", "key": {"VLDL-R": {"biological_target": "VLDL-R (Homo sapiens, UniProt P98155)", "settings": "Tables 1-3; cited from earlier work"}, "Megalin": {"biological_target": "Megalin (Homo sapiens, UniProt P98164)", "settings": "Tables 1-3; cited from earlier work"}, "BBCEC monolayers": {"system": "BBCEC monolayers", "test": "Transcytosis across BBCEC monolayers (in vitro BBB model)", "type": "cell-based, bovine", "from_the_text": "FIG. 10 assesses the ability of several agents to interfere with p97 transyctosis. FIG. 10a, transcytosis of I125-P97 was compared in the presence of cold p97 (5 micromolar), Lf (5 micromolar), and Tf (5 micromolar). […] FIG. 10c, RAP, a known poly-peptide inhibitor of the LDL-Receptor family was applied to the cells (25 micrograms/ml).\nFIG. 11 examines the accumulation and transcytosis of p97. FIG. 11a, of [^125I]-p97, [^125I]-BSA and [^125I]-holo-transferrin one hour after i.v. injection. The radioactivity in brain was compared between the three compounds. (n=3); FIG. 11b, Accumulation of p97 and transferrin into the mouse brain parenchyma. In situ brain perfusion was performed with human [^125I]-p97 or [^125I]-holo-transferrin at a final concentration of 10 nM via a catheter inserted in the right common carotid artery. The volume of distribution (VD) of [^125I]-proteins were obtained in the whole brain homogenate (white bars), in brain capillaries (solid bars) and in brain parenchyma (hatched bars) after isolation of the right hemisphere and capillary depletion. Results were obtained for p97 (n=10) and for holo-transferrin (n=6); FIG. 11c, Transcytosis of p97 across BBCEC monolayers. Transcytosis experiments were performed 37° C. (open circles) and 4° C. (closed circles) with BBCEC monolayers. [^125I]-p97 (1 mg/ml) was added to the upper side of the cell-covered filter. One representative experiment is shown (n=4); FIG. 11d, Preferential transport of p97 across the BBCEC monolayers. Apical-to-basal and basal-to-apical transport of [^125I]-p97 (25 nM) was measured for 2 hrs at 37° C. At the end of the experiment, [^125I]-p97 was assessed in the lower or upper chambers of each well by TCA precipitation (n=4).\nFIG. 13 illustrates the transcytosis and accumulation of p97 and transferrin in BBCEC monolayers. FIG. 13a, Transcytosis experiments were performed at 37° C. (solid bars) or 4° C. (white bars). [^125I]-p97 or bovine [^125I]-holo-transferrin (1 mg/ml) was added to the upper side of the cell-covered filter. At the end of the experiment, radiolabelled proteins were measured in the lower chamber of each well by TCA precipitation (n=4). Controls were also performed at 37° C. with denatured [^125I]-p97 or bovine [^125I]-holo-transferrin boiled for 30 min (grey bars) (n=2); FIG. 13b, Biospecific interaction analysis was performed with native or boiled p97 for the indicated times. MAb L235 (5 μg) was immobilized on a sensor chip (SM5) using standard procedures incorporating NHS, EDC and ethanolamine. Native and boiled p97 (5 to 30 min) diluted at 1 mg/ml in Ringer/Hepes was cooled and injected into the BIAcore. The surface plasmon resonance response obtained for native p97 and boiled p97 was plotted (in relative units (RU)) as a function of time; FIG. 13c, The accumulation of both proteins into BBEC cells were also measured. Briefly, after incubation at 37° C. (solid bars) or 4° C. (white bars) with either [^125I]-protein, cells were washed four times with cold PBS. Accumulation of both denatured proteins (grey bars) was also measured at 37° C. Filters were then removed, and the radioactivity associated with the cells was quantified (n=3).\nFIG. 14 illustrates the stability of p97 and integrity of the BBCEC monolayers following p97 transcytosis. FIG. 14a, Transcytosis experiments were performed at 37° C. and 4° C. by adding p97 (1 mg/ml) to the upper compartment. At the end of the experiment, 50 μl from each lower chamber was used for SDS-polyacrylamide gel electrophoresis. After electrophoresis, the gels were stained with Coomassie Blue. A standard curve was also made with known amounts of recombinant p97 (0-2 μg); FIG. 14b. The gels were dried and scanned to quantify the amount of intact p97 that crossed the BBCEC monolayers at 37° C. and 4° C. (n=3); FIG. 14c, Effect of p97 on sucrose permeability of BBCE cell monolayers co-cultured with astrocytes. […]"}, "LRP1B": {"system": "LRP1B", "test": "RT-PCR after p97 and RAP treatments in U-87 cells: LRP1B", "type": "cell-based, human", "settings": "RT-PCR", "description": "FIG. 34. Effect of p97 and RAP treatments in U-87 cells. A. Cells (2×10^5) were plated onto six-multiwell microplates and grown at 37° C. under 5% CO2 with optimal culture medium supplemented with serum for 4 days. Treatment was performed in serum free medium for 72 hours. RNA isolation and RT-PCR were performed as described in the Examples. B. LRP/LRP1B was immunodetected in cells lysates as described in the Examples. […] (N=2 for p97 treatment), (n=1 for RAP treatment)\nFIG. 35. Effect of p97 and RAP treatments in U-87 cells (RT-PCR). Cells (2×10^5) were plated onto six-multiwell microplates and grown at 37° C. under 5% CO2 with optimal culture medium supplemented with serum for 4 days. Treatment was performed in serum free medium for 72 hours. RNA isolation and RT-PCR were performed as described in the Examples. The amplified PCR products were electrophoresed on a 2% agarose gel and visualized under ultraviolet light. (n=2 for p97), (n=1 for RAP)\nRNA extraction. Cells in six-wells plate or in 75 cm^2 plastic tissue culture flasks were grown at 37° C. under 5% CO2 with optimal culture medium to 80-90% confluence. Total cellular RNA was preserved in Trizol (Gibco BRL, Burlington, ON). The solution are frozen at −80° C. until extraction. The solution was defroze and mixed with 5:1 chloroform for 3 minutes at room temperature. The suspension was centrifugated at 12000 g at 4° C. […]"}, "LDL-R": {"biological_target": "LDL-R (Homo sapiens, UniProt P01130)", "sequence (P01130 22-860, species assumed)": "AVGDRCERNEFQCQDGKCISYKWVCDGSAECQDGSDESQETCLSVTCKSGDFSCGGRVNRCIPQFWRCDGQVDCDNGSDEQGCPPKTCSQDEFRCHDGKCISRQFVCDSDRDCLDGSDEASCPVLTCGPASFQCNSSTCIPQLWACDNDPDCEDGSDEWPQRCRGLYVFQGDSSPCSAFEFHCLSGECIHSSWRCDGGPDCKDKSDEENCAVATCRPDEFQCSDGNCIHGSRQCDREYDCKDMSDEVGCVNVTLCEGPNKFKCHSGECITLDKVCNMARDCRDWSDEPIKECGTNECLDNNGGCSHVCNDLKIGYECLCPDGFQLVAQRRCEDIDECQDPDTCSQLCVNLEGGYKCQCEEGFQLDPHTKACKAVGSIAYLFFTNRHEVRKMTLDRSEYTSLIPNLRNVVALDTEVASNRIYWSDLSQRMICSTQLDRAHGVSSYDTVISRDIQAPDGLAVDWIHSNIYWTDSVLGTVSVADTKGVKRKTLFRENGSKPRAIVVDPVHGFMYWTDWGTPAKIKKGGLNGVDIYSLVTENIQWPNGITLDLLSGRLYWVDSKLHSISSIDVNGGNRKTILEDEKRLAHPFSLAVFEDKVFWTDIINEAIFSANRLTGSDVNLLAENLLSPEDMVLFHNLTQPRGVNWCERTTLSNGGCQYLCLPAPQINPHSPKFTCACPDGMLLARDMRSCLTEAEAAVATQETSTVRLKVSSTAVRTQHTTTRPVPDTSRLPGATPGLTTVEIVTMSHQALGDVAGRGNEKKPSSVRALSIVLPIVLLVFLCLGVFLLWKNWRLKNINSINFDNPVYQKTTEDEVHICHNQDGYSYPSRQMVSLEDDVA", "settings": "Tables 1-3; cited from earlier work"}, "LRP": {"biological_target": "LRP (Homo sapiens, UniProt Q07954)", "settings": "Tables 1-3; cited from earlier work"}}, "data": [{"substance": "RAP: receptor-associated protein, a protein chaperone that regulates LRP; polypeptide inhibitor of the LDL-Receptor family", "values": [{"measurement": "Binding to VLDL-R", "setting": "VLDL-R", "result": "Yes"}, {"measurement": "Binding to Megalin", "setting": "Megalin", "result": "Yes"}, {"measurement": "Effect on transcytosis of p97", "setting": "BBCEC monolayers; RAP 25 micrograms/ml (FIG. 10c)", "result": "significantly inhibited"}, {"measurement": "Inhibition of p97 transcytosis by LRP ligands", "setting": "BBCEC monolayers; RAP (0.6 μM), BSA (5 μM), 2 h at 37° C. (FIG. 17A)", "result": "inhibition"}, {"measurement": "Reduction of the initial rate of [125I]-p97 transport across BBCEC monolayers", "setting": "BBCEC monolayers; recombinant RAP 25 μg/ml (FIG. 16b)", "result": "more than 50%"}, {"measurement": "Effect of RAP on the p97 effect on receptor expression", "setting": "LRP1B", "result": "appears to antagonize the effect of p97"}, {"measurement": "Binding to LDL-R", "setting": "LDL-R", "result": "Yes"}, {"measurement": "Binding to LRP", "setting": "LRP", "result": "Yes"}]}]}
